Entries after “also recorded” stand apart in the source; their conditions may differ. Like-named read-outs stand apart in the source and are kept apart here.
Experiments:
Smu2 = assay: Kinetic parameters for Smu2; type: biochemical, Streptococcus mutans
Description: (§1) Quantitative assays using CB 1954 or SN 23862 as substrate were carried out at 37° C. by HPLC as previously described (2) (3). […] Incubation times varied according to the enzyme activity being studied.

C. jejuni NfnB = C. jejuni NfnB (Campylobacter jejuni, UniProt Q0P9I8)
Sequence of C. jejuni NfnB (Q0P9I8 entry or part of it): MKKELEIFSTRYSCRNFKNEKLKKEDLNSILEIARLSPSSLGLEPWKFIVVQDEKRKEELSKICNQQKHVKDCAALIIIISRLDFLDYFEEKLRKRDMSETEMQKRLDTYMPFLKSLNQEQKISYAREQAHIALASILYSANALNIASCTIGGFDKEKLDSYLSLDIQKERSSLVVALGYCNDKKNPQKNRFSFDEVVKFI

Pae3 = assay: Kinetic parameters for Pae3; type: biochemical, Pseudomonas aeruginosa; settings: menadione as substrate, NADPH as cofactor
Description: […] […] Incubation times varied according to the enzyme activity being studied.
The protein encoded by Pae3 was overexpressed in E. coli and purified by anion exchange chromatography.

H. influenzae NfnB = H. influenzae NfnB (Haemophilus influenzae, UniProt Q57431)
Efa 1 = assay: Kinetic parameters for Efa 1; type: biochemical, Enterococcus faecalis
Text: This gene is more highly related in sequence to ydgI compared to the other sequences used to search databases.

YodC = YodC (Bacillus subtilis, UniProt P81102); assay: Substrate and cofactor specificity for YodC
Sequence of YodC (P81102 2-202): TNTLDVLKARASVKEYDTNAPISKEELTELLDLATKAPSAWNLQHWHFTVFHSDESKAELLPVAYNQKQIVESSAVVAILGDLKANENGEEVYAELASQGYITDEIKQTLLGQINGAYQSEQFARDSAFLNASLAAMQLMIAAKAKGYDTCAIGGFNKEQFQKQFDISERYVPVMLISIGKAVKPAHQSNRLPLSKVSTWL
Description: as §1
(§2) Assays were carried out spectrophotometrically at 37° C. in 10 mM Tris pH 7.5 using cytochrome c as terminal electron acceptor.

[1] = test system: Cc1cc2nc3c(=O)[nH]c(=O)nc-3n(C[C@H](O)[C@H](O)[C@H](O)COP(=O)(O)OP(=O)(O)OC[C@H]3O[C@@H](n4cnc5c(N)ncnc54)[C@H](O)[C@@H]3O)c2cc1C; assay: purified protein, by the assay type; settings: other: flavin substrates, cofactor not given; pH 7.0; 37.0 °C
CC1=CC(=O)c2ccccc2C1=O = assay: purified protein, by the assay type; settings: other: 1 mM NADPH; pH 7.0; 37.0 °C
[2] = test system: Cc1cc2nc3c(=O)[nH]c(=O)nc-3n(C[C@H](O)[C@H](O)[C@H](O)COP(=O)(O)O)c2cc1C; assay: purified protein, by the assay type; settings: other: flavin substrates, cofactor not given; pH 7.0; 37.0 °C
[3] = test system: recombinant enzymes (antigens); assay: Western blots of antigens with rabbit antisera; type: binding; settings: antisera 1/10000 or 1/20000, ECL detection
Description: Recombinant enzymes were run on SDS PAGE 4-20% gradient at 0.05, 0.5, 5, 50 and 500 ng with 500 ng of the other antigens to test cross-reactivity. The antisera were added at a dilution of 1/10 000 or 1/20 000. Secondary antibody dilutions were as shown above and detection was by ECL (Amersham).
Antigens were run on SDS PAGE 4-20% gradient at 0.05, 0.5, 5, 50 and 500 ng with 500 ng of other antigens to test cross-reactivity. The antisera were added at a dilution of 1/10000 (α-P. gingivalis YwrO, α-YwrO BAM and α-H. influenzae NfnB) or 1/20000 (α-E. coli B NfnB and α-YdgI). Secondary antibody dilutions were as shown above and detection was by ECL.

[4] = test system: recombinant enzymes (antigens); assay: Polyclonal antisera titres by ELISA; type: binding; settings: rabbit antiserum; for Post-boost titre: 10 days after booster; for Pre-boost titre (50%): after 8 weeks
Description: Polyclonal antisera were raised against recombinant enzymes by immunising rabbits with […] of protein in 50% PBS:50% Freund's complete adjuvant, total volume 400 μl. Blood was collected by ear bleed after 6-8 weeks and again 10 days after a booster immunisation of protein, and titre assessed by ELISA. 96-well plates were coated with 1 μg ml^−1 of the proteins and blocked with 10% v/v foetal calf serum (FCS), antibodies were diluted in assay buffer (1% FCS) and applied in doubling dilutions across the plate from 1 in 100 to 1 in 51 200 or 1 in 150 to 1 in 76 800. A secondary antibody conjugated with HRP (dilution 1 in 10 000) was used to develop the assay with 3,3′,5,5′-tetramethylbenzidine (TMB) as substrate.
Antisera to E. coli B NfnB and six novel proteins (Haemophilus influenzae and Campylobacter jejuni NfnB homologues, YdgI and YodC of Bacillus subtilis, YwrO of B. amyloliquefaciens and Porphyromonas gingivalis YwrO homologue) have been raised in rabbits by inoculation with 100 μg of protein in PBS+ Freund's complete adjuvant. Titres were assessed by ELISA after 8 weeks, and 10 days after a booster inoculation of a further 100 μg of protein per rabbit. Pre-immune sera were also tested.
96 well plates were coated overnight at 4° C. with the antigens at 1 μg/ml. After washing and blocking antisera were added in doubling dilutions in an appropriate range across the plates. The plates were developed using goat anti-rabbit IgG peroxidase conjugate with TMB as substrate, and read at 450 nm.

[5] = Flavin reductase assay with FMN and FAD; type: biochemical; settings: for Flavin reductase: Table 6
Description: as §2

[6] = Nitroreductase enzyme assay with SN 23862 as substrate (HPLC); type: biochemical
[7] = Nitroreductase enzyme assay with CB 1954 as substrate (HPLC); type: biochemical; settings: for CB 1954 product: Table 6, recombinant enzymes
[8] = type: biochemical; settings: Table 6
[9] = Quinone reductase assay with menadione, cytochrome c as terminal electron acceptor; type: biochemical; settings: for Quinone reductase: Table 6
Description: as §2

V79 cells = assay: In vitro cytotoxicity test, prodrug + enzyme + cofactor, SRB assay; type: cell-based; settings: for in vitro cytotoxicity of SN 23862 with enzyme: FIG. 4
Description: Microtitre plates (96 well) were obtained pre-seeded with V79 cells at 10,000 cells/ml (European Collection of Animal Cell Cultures, ECACC) in DMEM+10% foetal calf serum. All treatments were prepared on duplicate plates and transferred to the cells prior to adding enzyme (10 μl) to the appropriate wells. […] Enzymes were diluted in sterile PBS. All aqueous solutions were filter sterilised before use and operations carried out aseptically in a laminar flow hood. […] Cytotoxicity was quantified by sulphorhodamine B (SRB) assay. Briefly, the growth medium was removed and the cells fixed by addition of 100 μl per well of cold 10% TCA for 30 min. The TCA was removed and the fixed cells washed with water before adding 100 μl per well of 0.4% dye in 1% acetic acid and incubating at room temperature for 30 min. Excess dye was removed and the wells washed 4 times with 1% acetic acid. After air drying at room temperature the dye was solubilised by adding 100 μl of 10 mM Tris to each well and shaking for 15 min. […] Cytotoxicity towards treated cells was expressed as % of A492 of untreated controls and statistical analysis was performed using the Mann-Whitney test. ED50's were caculated using probit analysis.

[10] = type: biochemical; settings: Table 6; remark: listed apart in the source
[11] = substrates, NADPH preferred cofactor
[12] = listed as P. gingivalis YwrO homologue
[13] = listed as YwrO of P. gingivalis
[14] = Table 6, 37° C., read-out: Km CB 1954

Molecule: NADPH
- Km (Smu2; 100 uM menadione): 1.3 µM
- kcat (Smu2; 100 uM menadione): 188.7 s⁻¹
- kcat (C. jejuni NfnB; 20 μM menadione): 62.5 s⁻¹
- Km (Pae3): 308 µM
- kcat (Pae3): 33.8 s⁻¹
- kcat (H. influenzae NfnB; menadione 100 μM): 154.2

Molecule: CC1=CC(=O)c2ccccc2C1=O [Menadione]
- Ksi (Efa 1): 18.0 µM
- Km (Efa 1; substrates, cofactor not given): 107 µM
- kcat (Efa 1; substrates, cofactor not given): 264.8 s⁻¹
- Km (Smu2; [11]): 2.7 µM
- kcat (Smu2; [11]): 201.0 s⁻¹
- kcat (C. jejuni NfnB; 1 mM NADPH): 66.1 s⁻¹
- Km (Pae3): 3.8 µM
- Ksi (Pae3): 18.0 µM
- kcat (Pae3): 153.4 s⁻¹
- kcat (H. influenzae NfnB; 1 mM NADH): 24.1
- kcat (H. influenzae NfnB; 1 mM NADPH): 177.8
- kcat (YodC; cofactor NADH): 415.4 ± 14.8 s⁻¹
- Km (YodC; cofactor NADH, 37° C., 10 mM Tris pH 7.5): 1 ± 0.1 µM
- Km (YodC; cofactor NADPH): 1.6 ± 0.2 µM
- kcat (YodC; cofactor NADPH): 329.5 ± 18.4 s⁻¹

Molecule: C. jejuni NfnB (Campylobacter jejuni subsp. jejuni NCTC 11168 = ATCC 700819)
- Km [1]: 3.3 ± 0.4 μM μM
- Km (CC1=CC(=O)c2ccccc2C1=O): 1.3 ± 0.2 μM μM
- Km [2]: 0.7 ± 0.2 μM μM

B1: P. gingivalis YwrO: nitroreductase from Porphyromonas gingivalis, SEQ ID NO: 25 (protein, listed as Porphyromonas gingivalis)
chain: MKKTLVIVVHPDLTKSVINKAWAKAIEGAATIHHLYEQYPNGQIDLAHEQALLEAHDRIVFQFPLYWYAAPYLLKKWMDEVFTEGWAYGAGGDKMEGKEICAAVSCGSPKSAFAEGAQQCHTLRSYLNVFDGIAAFLRARFTGYHACYDSYNPRLPEMLPANCEAYLRFIKGE
- amount of antigen detected by its antiserum in Western blot [3]: 500 ng
- Post-boost titre [4]: 3100
- Pre-boost titre (50%) [4]: 1000
- Flavin reductase [5]: No
- flavin reductase activity [5, 12]: inactive with menadione or flavins
- flavin reductase activity [5, 13]: little activity with menadione or flavins
- SN 23862 acitvity ([6]; Table 6): Yes
- activity with SN23862 [6, 12]: active with SN23862; also recorded: too slow for kinetic parameters to be calculated accurately
- kcat (CB 1954) [7]: 3.2 s⁻¹
- kcat for CB1954 (text) [7]: 3.2 s⁻¹
- reduction of CB1954: activity and product formed [7]: only the 4HX reduction product
- Km [7, 14]: 1200 µM
- CB 1954 product [7]: 4HX
- Km ([7]; read-out: Km for CB1954): 1200 µM
- Azo-Reductase [8]: Yes
- Quinone reductase [9]: No
- activity with menadione / quinone reductase [9, 12]: inactive with menadione or flavins
- activity with menadione / quinone reductase [9, 13]: little activity with menadione or flavins
- in vitro cytotoxicity of SN 23862 with enzyme (V79 cells): lack of activity
- Cofactor [10]: NADH

B2: H. influenzae NfnB: nitroreductase from H. influenzae, SEQ ID NO: 17 (protein, listed as Haemophilus influenzae)
chain: MTQLTREQVLELFHQRSSTRYYDPTKKISDEDFECILECGRLSPSSVGSEPWKFLVIQNKTLREKMKPFSWGMINQLDNCSHLVVILAKKNARYDSPFFVDVMARKGLNAEQQQAALTKYKALQEEDMKLLENDRTLFDWCSKQTYIALANMLTGASALGIDSCPIEGFHYDKMNECLAEEGLFDPQEYAVSVAATFGYRSRDIAKKSRKGLDEVVKWVG
- Post-boost titre [4]: 760
- Pre-boost titre (50%) [4]: 180
- Flavin reductase [5]: Weak
- flavin reductase activity ([5]; listed as H. influenzae NfnB homologue): lacks activity with the quinone menadione and flavins FMN or FAD; also recorded: little activity
- activity with SN23862 [6]: weak activity with SN23862
- SN 23862 acitvity, second number of the cell (kcat) ([6]; Table 6, HPLC assay): 39.8
- Km ([6]; Table 6, HPLC assay, read-out: SN 23862 acitvity, first number of the cell (Km)): 3360 µM
- reduction of CB1954: activity and product formed [7]: form the 4HX reduction product of CB1954
- kcat (CB 1954) ([7]; Table 6, 37° C.): 56.2 s⁻¹
- Km [7, 14]: 690 µM
- CB 1954 product [7]: 4HX
- Azo-Reductase [8]: No
- activity with menadione / quinone reductase [9]: lacks activity with the quinone menadione
- Quinone reductase [9]: Yes
- in vitro cytotoxicity of CB 1954 with enzyme (V79 cells; FIG. 3): most potent
- in vitro cytotoxicity of SN 23862 with enzyme (V79 cells): most potent
- Cofactor [10]: NADPH

— patent US20040014191A1, “Nitroreductase enzymes” (priority 1999, published 2004)
